Test results taken from the supplement of paper PMC10567573.

B1: KCNK9 (parent)
chain: CFITLTTIGFGDYVALQTKGALQK

Variants of: B1
Experiment: protein stability index of a GFP-peptide fusion (GPS, HEK-293T) (PSI 1-6); higher = more stable
Conditions: c terminus: a fixed tail appended
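Note: lentivirally expressed fusions sorted by FACS into six bins by GFP to DsRed ratio, PSI derived from sequencing read proportions per bin multiplied by bin number.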

| Variant | protein stability index |
| --- | --- |
| CFITLTTIGFGDMVALQTKGALQK [Y13M] | 3.32 |
| CFITLTTIGFGDHVALQTKGALQK [Y13H] | 2.07 |
| CFITLTTIGFGDGVALQTKGALQK [Y13G] | 2.42 |
| CFITLTTIGFGDSVALQTKGALQK [Y13S] | 2.51 |
| CFITLTTIGFGDCVALQTKGALQK [Y13C] | 3.93 |
| CFITLTTIGFGDTVALQTKGALQK [Y13T] | 3.55 |
| CFITLTTIGFGDRVALQTKGALQK [Y13R] | 2.32 |
| CFITLTTIGFGDLVALQTKGALQK [Y13L] | 2.38 |
| CFITLTTIGFGDQVALQTKGALQK [Y13Q] | 2.05 |
| CFITLTTIGFGDKVALQTKGALQK [Y13K] | 2.24 |
| CFITLTTIGFGDNVALQTKGALQK [Y13N] | 2.04 |
| CFITLTTIGFGDVVALQTKGALQK [Y13V] | 2.57 |
| CFITLTTIGFGDAVALQTKGALQK [Y13A] | 3.35 |
| CFITLTTIGFGDPVALQTKGALQK [Y13P] | 2.92 |
| CFITLTTIGFGDIVALQTKGALQK [Y13I] | 2.31 |
| CFITLTTIGFGDWVALQTKGALQK [Y13W] | 2.93 |
| CFITLTTIGFGDDVALQTKGALQK [Y13D] | 2.1 |
| CFITLTTIGFGDEVALQTKGALQK [Y13E] | 2.12 |
| CFITLTTIGFGDYVANQTKGALQK [L16N] | 2.54 |
| CFITLTTIGFGDYVAGQTKGALQK [L16G] | 1.89 |
| CFITLTTIGFGDYVAYQTKGALQK [L16Y] | 2.44 |
| CFITLTTIGFGDYVAQQTKGALQK [L16Q] | 2.65 |
| CFITLTTIGFGDYVACQTKGALQK [L16C] | 2.03 |
| CFITLTTIGFGDYVAKQTKGALQK [L16K] | 3.4 |

| Variant | protein stability index |
| --- | --- |
| CFITLTTIGFGDYVAWQTKGALQK [L16W] | 2.27 |
| CFITLTTIGFGDYVAAQTKGALQK [L16A] | 3.26 |
| CFITLTTIGFGDYVASQTKGALQK [L16S] | 1.75 |
| CFITLTTIGFGDYVAMQTKGALQK [L16M] | 1.56 |
| CFITLTTIGFGDYVAFQTKGALQK [L16F] | 2.53 |
| CFITLTTIGFGDYVAVQTKGALQK [L16V] | 3.73 |
| CFITLTTIGFGDYVATQTKGALQK [L16T] | 2.26 |
| CFITLTTIGFGDYVAEQTKGALQK [L16E] | 3.25 |
| CFITLTTIGFGDYVADQTKGALQK [L16D] | 2.23 |
| CFITLTTIGFGDYVAHQTKGALQK [L16H] | 2.43 |
| CFITLTTIGFGDYVAIQTKGALQK [L16I] | 2.65 |
| CFITLTTIGFGDYVAPQTKGALQK [L16P] | 2.64 |
| CFITLTTIGFGDYVARQTKGALQK [L16R] | 2.74 |
| CFITLTWIGFGDYVALQTKGALQK [T7W] | 4.77 |
| CFITLTYIGFGDYVALQTKGALQK [T7Y] | 2.13 |
| CFITLTTAGFGDYVALQTKGALQK [I8A] | 2.08 |
| CFITLTTHGFGDYVALQTKGALQK [I8H] | 3.24 |
| CFITLTTPGFGDYVALQTKGALQK [I8P] | 2.39 |
| CFITLTTFGFGDYVALQTKGALQK [I8F] | 2.8 |
| CFITLTTSGFGDYVALQTKGALQK [I8S] | 2.95 |
| CFITLTTMGFGDYVALQTKGALQK [I8M] | 2.03 |
| CFITLTTNGFGDYVALQTKGALQK [I8N] | 2.27 |
| CFITLTTYGFGDYVALQTKGALQK [I8Y] | 1.78 |
| CFITLTTKGFGDYVALQTKGALQK [I8K] | 1.53 |

| Variant | protein stability index |
| --- | --- |
| CFITLTTLGFGDYVALQTKGALQK [I8L] | 3.63 |
| CFITLTTGGFGDYVALQTKGALQK [I8G] | 2.78 |
| CFITLTTCGFGDYVALQTKGALQK [I8C] | 2.37 |
| CFITLTTQGFGDYVALQTKGALQK [I8Q] | 3.37 |
| CFITLTTVGFGDYVALQTKGALQK [I8V] | 3.42 |
| CFITLTTDGFGDYVALQTKGALQK [I8D] | 2.14 |
| CFITLTTEGFGDYVALQTKGALQK [I8E] | 2.39 |
| CFITLTTTGFGDYVALQTKGALQK [I8T] | 3.29 |
| CFITLTTRGFGDYVALQTKGALQK [I8R] | 1.67 |
| CFITLTTIGFGDYVVLQTKGALQK [A15V] | 2.68 |
| CFITLTTIGFGDYVKLQTKGALQK [A15K] | 2.38 |
| CFITLTTIGFGDYVFLQTKGALQK [A15F] | 2.37 |
| CFITLTTIGFGDYVHLQTKGALQK [A15H] | 3.04 |
| CFITLTTIGFGDYVRLQTKGALQK [A15R] | 3.46 |
| CFITLTTIGFGDYVILQTKGALQK [A15I] | 3.38 |
| CFITLTTIGFGDYVSLQTKGALQK [A15S] | 4.26 |
| CFITLTTIGFGDYVGLQTKGALQK [A15G] | 2.48 |
| CFITLTTIGFGDYVLLQTKGALQK [A15L] | 2.64 |
| CFITLTTIGFGDYVNLQTKGALQK [A15N] | 2.76 |
| CFITLTTIGFGDYVPLQTKGALQK [A15P] | 3.05 |
| CFITLTTIGFGDYVWLQTKGALQK [A15W] | 3.31 |
| CFITLTTIGFGDYVTLQTKGALQK [A15T] | 3.18 |
| CFITLTTIGFGDYVMLQTKGALQK [A15M] | 3.04 |
| CFITLTTIGFGDYVCLQTKGALQK [A15C] | 3.23 |

| Variant | protein stability index |
| --- | --- |
| CFITLTTIGFGDYVQLQTKGALQK [A15Q] | 2.3 |
| CFITLTTIGFGDYVELQTKGALQK [A15E] | 2.93 |
| CFITLTTIGFGDYVDLQTKGALQK [A15D] | 3.31 |
| CFITLTTIGFGDYVYLQTKGALQK [A15Y] | 2.43 |
| CFITLTTIGFGDYWALQTKGALQK [V14W] | 2.71 |
| CFITLTTIGFGDYTALQTKGALQK [V14T] | 2.64 |
| CFITLTTIGFGDYDALQTKGALQK [V14D] | 2.74 |
| CFITLTTIGFGDYSALQTKGALQK [V14S] | 2.06 |
| CFITLTTIGFGDYGALQTKGALQK [V14G] | 2.69 |
| CFITLTTIGFGDYPALQTKGALQK [V14P] | 2.82 |
| CFITLTTIGFGDYNALQTKGALQK [V14N] | 1.86 |
| CFITLTTIGFGDYKALQTKGALQK [V14K] | 1.82 |
| CFITLTTIGFGDYLALQTKGALQK [V14L] | 3.31 |
| CFITLTTIGFGDYYALQTKGALQK [V14Y] | 3.12 |
| CFITLTTIGFGDYQALQTKGALQK [V14Q] | 3.43 |
| CFITLTTIGFGDYFALQTKGALQK [V14F] | 3.46 |
| CFITLTTIGFGDYAALQTKGALQK [V14A] | 3.25 |
| CFITLTTIGFGDYEALQTKGALQK [V14E] | 2.12 |
| CFITLTTIGFGDYIALQTKGALQK [V14I] | 2.86 |
| CFITLTTIGFGDYMALQTKGALQK [V14M] | 2.02 |
| CFITLTTIGFGDYRALQTKGALQK [V14R] | 2.7 |
| CFITLTTIGFGDYHALQTKGALQK [V14H] | 2.99 |
